Residue numbers refer to the chain shown, from its start.
B1: Fab 0088 (Fab, V domains shown)
VH: EVQLVESGGGLVKPGGSLRLSCAASGFTFSNYAMSWVRQTPEKRLEWVATISRSGSYSYFPDSVQGRFTISRDNAKNSLYLQMNSLRAEDTAVYYCARLGGYDEGDAMDSWGQGTTVTVSS
VL: DIVMTQTPLSLSVTPGQPASISCKSSQSLLESDGKTYLNWYLQKPGQSPQLLIYLVSILDSGVPDRFSGSGSGTDFTLKISRVEAEDVGVYYCLQATHFPQTFGGGTKVEIKR
B2: mAb 2021 (antibody, IgG4, V domains shown)
VH: B1 VH
VL: B1 VL
B3: Fab 0313 (Fab, V domains shown)
VH: B1 VH with T40A, E42G, R44G, A49S, F60Y, P61A, Q65K
VL: B1 VL
B4: mAb 0310 (antibody, human IgG1, kappa, V domains shown)
VH: B1 VH
VL: B1 VL
B5: Fab 0295 (Fab, V domains shown)
VH: QVQLKQSGPGLVQPSQSLSITCTVSGFSLTNYGVHWVRQSPGKGLEWLAVIWRGGSIDYNAAFMSRLSITKDNSKSQVFFKMNSLQADDTAIYYCAKNSHGNYVGYAMDYWGQGTSVTVSS
VL: GIVMTQSQKFMSTTVGDRVSITCKASQSVGPAVAWYQQKPGQSPKLLIYSASNRYTGVPDRFTGSGSGADFTLTISNLHSEDLADYFCQQYTSYPTFGGGTKLEIKR
B6: mAb 0336 (antibody, human IgG1, kappa, V domains shown)
VH: B5 VH
VL: B5 VL
B7: mAb 2F3 (antibody, IgG1, V domains shown)
VH: B5 VH with T30S, N31S, A49G, I57T, Y59F, L67V, I69F
VL: DIVMTQSQKFMSTTVGDKVSIPCKASENVGAAVAWYQQKPGQSPTLLIYSASNRYTGIPDRFTGSGSGTDFTLTIRTVQSEDLADYFCQQYTNYPTFGGGTKLEIKR
B8: mAb 2F22 (antibody, IgG1, V domains shown)
VH: B5 VH
VL: B5 VL
B9: mAb 1F91 (antibody, IgG1, V domains shown)
VH: DVQLQESGPGLVKPSQSLSLTCTVSGYSITSDYAWNWIRQFPGNKLEWMGYISYSGSTSYNPSLKSRISITRDTSKNQFFLQLNSVTTEDTATYYCARWAYDGPWGQGTLVTVSA
VL: QIVLSQSPALLSASPGEKVTMTCRASSSVSHMHWYQQKPGSSPKPWIYATSNLASGVPARFSGSGSGTSYSLTITRVEAEDAATYYCQQWSSNPFTFGSGTKLEIKR

Assays:
Experiment in all cases: cell-based or functional assay
[1] = biological target: T1, endogenous TFPI of human plasma (human, UniProt P10646 29-304, limits assumed)
[2] = biological target: T2, human TFPI alpha (full-length TFPIα) (human, UniProt P10646 29-304)
[3] = biological target: T2, human TFPI alpha (full-length TFPIα); remark: listed apart in the source
[4] = biological target: T1, endogenous TFPI of human plasma; remark: listed apart in the source
[5] = biological target: T2, human TFPI alpha (full-length TFPIα); remark: listed apart in the source

Binder	Peak (nM); thrombin generation, FVIII-neutralised plasma, endogenous TFPI; 10 nM Fab [1]	Peak (nM); thrombin generation, FVIII-neutralised plasma, endogenous TFPI; 50 nM Fab [1]	Peak (nM); thrombin generation, FVIII-neutralised plasma, endogenous TFPI; 100 nM Fab [1]	ttPeak (min); thrombin generation, FVIII-neutralised plasma, endogenous TFPI; 10 nM Fab [1]	ttPeak (min); thrombin generation, FVIII-neutralised plasma, endogenous TFPI; 50 nM Fab [1]	ttPeak (min); thrombin generation, FVIII-neutralised plasma, endogenous TFPI; 100 nM Fab [1]	Peak (nM); thrombin generation, FVIII-neutralised plasma + 10 nM TFPIα; 10 nM Fab [2]	Peak (nM); thrombin generation, FVIII-neutralised plasma + 10 nM TFPIα; 50 nM Fab [2]	Peak (nM); thrombin generation, FVIII-neutralised plasma + 10 nM TFPIα; 100 nM Fab [2]	ttPeak (min); thrombin generation, FVIII-neutralised plasma + 10 nM TFPIα; 10 nM Fab [2]	ttPeak (min); thrombin generation, FVIII-neutralised plasma + 10 nM TFPIα; 50 nM Fab [2]	ttPeak (min); thrombin generation, FVIII-neutralised plasma + 10 nM TFPIα; 100 nM Fab [2]	Peak (nM); thrombin generation, FVIII-neutralised plasma + 20 nM TFPIα; 200 nM antibody [3]	ttPeak (min); thrombin generation, FVIII-neutralised plasma + 20 nM TFPIα; 200 nM antibody [3]	further results
B1	85.6 nM	85.2 nM	90.2 nM	11.5 min	11.6 min	11.6 min	12.7 nM	42.9 nM	54.2 nM	29 min	21.2 min	20.2 min			
B2													17.2 nM	26.2 min	
B3	10 nM	19.8 nM	29.6 nM	21 min	10.2 min	8.9 min	0.4 nM	0.8 nM	1.4 nM	106 min	76.2 min	48.1 min			
B4															Peak (nM); thrombin generation, FVIII-neutralized plasma, no TFPI added; 10.0 nM mAb [4]: 118 nM; ttPeak (min); thrombin generation, FVIII-neutralized plasma, no TFPI added; 10.0 nM mAb [4]: 8.5 min; Peak (nM); thrombin generation, FVIII-neutralized plasma + 10 nM TFPI alpha; 100.0 nM mAb [5]: 28.3 nM; ttPeak (min); thrombin generation, FVIII-neutralized plasma + 10 nM TFPI alpha; 100.0 nM mAb [5]: 24.5 min
B5	94 nM	101 nM	103 nM	8.4 min	8.2 min	8.2 min	10.9 nM	31.8 nM	33.8 nM	25.2 min	11.5 min	10.8 min			
B6															Peak (nM); thrombin generation, FVIII-neutralized plasma, no TFPI added; 10.0 nM mAb [4]: 140 nM; ttPeak (min); thrombin generation, FVIII-neutralized plasma, no TFPI added; 10.0 nM mAb [4]: 7.8 min; Peak (nM); thrombin generation, FVIII-neutralized plasma + 10 nM TFPI alpha; 100.0 nM mAb [5]: 44.9 nM; ttPeak (min); thrombin generation, FVIII-neutralized plasma + 10 nM TFPI alpha; 100.0 nM mAb [5]: 11.7 min
B7													20.9 nM	14.6 min	
B8													23.7 nM	13.6 min	
B9													0 nM		

Source: patent US20170260289A1 (Novo Nordisk, published 2017)
